Here are results for one substance from paper PMC2819989.

The assay deals with RhiG-C-His (Bacillus subtilis ATCC6633). Nature of the assay: SEC.

On to RhiG-C-His (enzyme), for which the stoichiometry N (commonly a count of units in the complex or per binding partner) was found to be 2.
